Reference: the DeepSol protein solubility set

Experiment: soluble on expression in E. coli; label from the status in PepcDB or PDB records

Row | Sequence | soluble on expression in E. coli
1 | MGSSHHHHHHSSGLVPRGSHMAKAPEQTVTEPVGSYARAERPQDFEGFVWRLDNDGKEALPRNFRTSADALRAPEKKFHLDAAYVPSREGMDALHISGSSAFTPAQLKNVAAKLREKTAGPIYDVDLRQESHGYLDGIPVSWYGERDWANLGKSQHEALADERHRLHAALHKTVYIAPLGKHKLPEGGEVRRVQKVQTEQEVAEAAGMRYFRIAATDHVWPTPENIDRFLAFYRTLPQDAWLHFHCEAGVGRTTAFMVMTDMLKNPSVSLKDILYRQHEIGGFYYGEFPIKTKDKDSWKTKYYREKIVMIEQFYRYVQENRADGYQTPWSVWLKSHPAKA | soluble
2 | MGDTMQQRLTQDLTQFLASLPEDDRIKAINEIRMAIHQVSPFREEPVDCVLWVKNSQLMPNDYNPNNVAPPEKKLLQKSIEIDGFTQPIVVTHTDKNAMEIVDGFHRHEIGKGSSSLKLRLKGYLPVTCLEGTRNQRIAATIRHNRARGRHQITAMSEIVRELSQLGWDDNKIGKELGMDSDEVLRLKQINGLQELFADRQYSRAWTVK | soluble
3 | MGSDKIHHHHHHMITHIRVASQQLEQPRFESPKELVSWMGAIQAQEYEMAKWAIGIRLRSSSLEKVNEALYKGDILRTHVMRPTWHFVAAEDIRWMLMLSSERIKAAVMSYAKGHFGKIEKTLFTRYLDQIGKILEGYKSLTKQEVTTELQKSGILPTIDHVNLFLTWGEVEGIVCSGIDKGKKTTYALLDERVPPTRELCREEALARLASRYFQSHSPAQLQDFVWWSGLTATECRLAINLIKTELITETFDSREYFIHQSWKGKNESKPVLRLLPAFDEYLISYKNRTDVLPLEHHPKAFNRFGTFYPVILYNGKIIGNWSRSIKKNTIQIEMDFFEKKPRIPVKLIQQAEAQIDAFYRGLSHRPALQCREK | not soluble
4 | MTTQFKPELLSPAGSLKNMRYAFAYGADAVYAGQPRYSLRVRNNEFNHANLKIGIDEAHSLGKKFYVVVNIAPHNSKLKTFIKDLQPVIDMKPDALIMSDPGLIMLVRENFPNIDIHLSVQANAVNWATVKFWKQMGLTRVILSRELSIDEIAEIRQQVPDIELEIFVHGALCMAYSGRCLLSGYINKRDPNQGTCTNACRWEYKMEEGTTDDVGNIVPKIDPAQQIEVKNVAPTLGEGAVTDKVFLYTESQKPDEQMTAFEDKHGTYFMNSKDLRAVQHVEKLTALGVHSLKIEGRTKSFYYCARTAQVYRKAIDDAAAGKPFDESLMDTLESLAHRGYTEGFLRRHTHDEYQNYEYGYSISDRQQFVGEFTGKRNEQGMAEVAVKNKFLLGDNVEMMTPQGNINFKIEKMLNRKNETVDAALGDGHFVFLNVPQDINLNYALLMRNLVNTNTRNPHSN | not soluble
5 | MEKQKTFHVAVVGATGAVGEQMLNTLEKREFPIGKLTLLSSKRSAGKKLVFKGEEFTVQEATPESFEGVDIALFSAGGSVSKQLAPEAAKRGAIVVDNTSAFRMTENVPLVVPEVNENDLKEHNGIIANPNCSTIQMVVALEPVRQQYGLKRVIVSTYQAVSGAGAAAIEELHEQSQAILNGEEVKANVLPVSGDKKHFPIAFNAIPQIDKFQDNGFTFEEMKMINETKKIMHMPELEVAATCVRLPVVSGHSESVYIEVEKEGVTVEELKSLLANAEGIVLQDNPEEQLYPMPATAVGKNEVFVGRIRKDLNNDKGFHLWVVSDNLLKGAAWNSVQIAERLVKLQLV | not soluble
6 | MGSDKIHHHHHHMEFEFCVQDPTDPGTRYLYEAIIGAAADATTWRGMYAFATRGGVDQLIEDPVVHEFMRRGGEIDLIVGIDAVTNRQTLERMQALEERHEHFHPKVFWNTTGGLFHPKISHFGYADGRTKLILGSGNLTPGGLRHNFEGYSVISGGRREAIDLSSLDAFIARHEADIRPIDQAALDRAALNIVRPVAALPGPRAPQLRPPRAVSREAVLDRILLAQVPAAGGRWSQVHFNTQITEQYFRVTDVATQRVYLTSIDAAGLRGEEEVRPVVFSQANGNHKIEIAAAKGLDYPDSPPLLVFRERQVRCFDYMLLMPDSPGYGELLGLSQALPTIGRGLRRAITDMATLSQAWPACPLLTAGDALDQTI | not soluble
7 | MNLLPYQFVGEVVRGFGRGGKELGCPTANMDGTVVNGLPEGLPVGVYFGTAKLDGKSYKMAMSIGWNPQYQNEKKTVELHLIDYSGSDFYGKTLSAVIIGFIREMKSFESLDELKSAIAMDIKVARRGSVEQGKL | not soluble
8 | MSLNKFVDREGSVVAVYAAKSKAGCSAPDVEKVNQDAFCLVEKYGDSPNLSWFSVMDGHGLNGHLVSDIVRQILHKNVQECPEFNRDIKQALQKGFFRTNCELFQPGIDITMSGTTCVACVFHGSTLYSANVGDSRAIMGRSNGKGGWTSLSLTHDHKPDRPDEEKRILAADGRVGALKGPNGEALGPARVWRKDCDAPGLAMSRSLGDSLAASVGVIDDFIVIASDGLWEFMTNEEVTQIVSRFLDSRDPLGACDGLIEEANRRWRLEDDVIDDTTVVVIFLDVGRKEGHHHHHH | not soluble
9 | MGSDKIHHHHHHMSLVINQLSKRIDHHQTLDGISFEIGLGQIVGVVGRNGVGKTTLFRTINGQYLTDHGQVLVDGQEVVDQPEMRTQLCFIDPLANFFKGATIAQIQWYYQAAYPDFDNAKFAQLLDRYHLTSKQKLRHFSKGMFGLFTIILSVATQAPYLFLDEPLDGLDVLIRKNILGILIDEVATGNRSIVIASHNLAELEGVIDRALMLKHGRIVNDYQLEAMRRSARKVQLVYRDKQIPAVVKQLGHIVHVSGRVIVVVFEDYNAEVQAQLATTNPVFQEDLPLSLADLFMANLTDEADFELLS | not soluble
10 | MKLERVLPFARSLLQTAVKEGDYAVDATLGNGHDTCFLAEIVGDNGKVFGFDIQKEAIESSTTRLKEKELFERTVLVHDSHDTLLSILPEDAKGKVTGAIFNLGYLPGGDKHIVTKPNSTISAIEQLLEVMAPEGIIVLVIYHGHPEGQVERDAVLKFAEELDQKQAHVLRYGFINQQNNPPFIVAIEKR | not soluble
11 | MILYDAIMYKYPNAVSRKDFELRNDGNGSYIEKWNLRAPLPTQAELETWWEELQKNPPYEPPDQVELLAQELSQEKLARKQLEELNKTLGNELSDIKLSLLSLKGDYAELEHHHHHH | soluble
12 | KTMLKIKMAEDAEMIDEVVVTALGIKREEKALGYAVQKVGGSKLSTVKPVNIATSLTGKVAGLNVTNSTEFNTAPTLKLRGETPLLVVDGVPYSNISLNDIAADDIESVDVLKGATASALYGARGGSGAIMVTTKKGSQEG | not soluble
13 | MIDTVSVVLFSKKSHIKIARSVLRDFLQMHESSDSLIVDMEIVLGEILANVIKHTYKNDETKRIIVSYTLKDEVFHMLVRDFGPPVDPTRLKPMPPDLENPREGGYGFYIISRVTDEFRVRPLRNGNLTVVKKKLR | soluble
14 | MGFLNKLLSSEGPRKPKVKFDLQKCKVLLKGGENRIRLQKSKLAVCNLLASPVPALKNLFNKNSVKLQQREVAVLLEGGKDELARIRAEQMVRDELLIESYEIVEVLCETLLTRHNLLALNFHATKENPYPPLPPEIAEAVCSIAFASCRLDASELQTLTEMLASRFGPELIDSACAGQPSQRVWGVNSLVNPRLYSKLLYSVPDGNVVLQKLQDIADMFQLEWKAPAEFEELKDHSVLDSTASTPVFSGNAQRARYLPEASSFSDEKIGDDVFCTNESEQTEEGRDPSDDLSARLEALKRNR | not soluble
15 | MKLWAIYFEPEDWVGFRETRRFSFSDRVESVFPSSFPFYGAVRTALLMKNQKFDPGDVERAGDVRMFGPFVFENTPEGRKHYFPLPRNIYKTDSGYRVTPIVEIDGVYLPWKPEYKMDSKESTSGGLIELSDLELLRSNTQGVCKFDLVSAEKIFKKETHIGVAFEENRKKVKERMIYSISYYRFYDGGFFMFTDDERTVELVSKLDGVFLGMKSKWSAVEVEELNTTAFDPPDYKNVAVALITPAVFDGGGMPKDKTILGKRVLTTAGIRKQVVSGWDLRENKPKKIYHAVSPGAVYYLEGKVNGHVLNESKFTDFGFGRCIFMKYEKL | soluble
16 | MGSDKIHHHHHHMKIILANPRGFCAGVDRAISIVELALEIHGAPIYVRHEVVHNRFVVDGLRDRGAIFVEELDEVPNGAIVIFSAHGVSQAVRQEAKERNLKVFDATCPLVTKVHMQVARASRKGTKAILIGHEGHPEVIGTMGQYDNDKGGIYLVEDVEDIAKLTLRNDEDITFMTQTTLSIDDTADVIEVLKQKYPAIQGPRKNDICYATTNRQQAVRELAELSDLVIVVGSKNSSNSNRLAELASRMGVTAKLIDDANDIEVSWLNNVKVIGLTAGASAPEILVQSVISRLKELGVDEVEELEGCEENTVFEVPKELRINKVE | not soluble
17 | MDAKHIEKVFVKKVPAKSNKAQVKYPFDENSVNVLIIGLDKASNRSTYDLHRTDTILFLNINFKDKKVKGISIPRDTLTEIYKVGKWDKINSAFGYGGGEKEEGFFYTMETVSKLLGGMPIEYYVGFDLDAVRKVVNILGGVYVNVEVPVKVKTKWVNIDLKPGYQKLNGIETLYYALWRKTPGGDIDRIKRDKELILSVFEQLKESNKIITLPEIYWKIRRHFYTNLSLQQITSLAYFAQNMKKEDIVFESIPGDYFNYMGVSYWKPDYEGIKKLVKDLFGYDIEIDLKMPEKYKYARRIIVKAKKENNISYSHTNKSYSTESSQNQNSQSNSEVNLVQKQTETIENSTQSSSPFDAQWRNSSEDTQTLPPENDSQTTQGTQQQQATTESEIQVDTPSTSSDVVSNVYGGRLEHHHHHH | soluble
18 | PRAAARGGGGDAGTRGRGFVQAGRGAPMAECGRGGAAGGALPTSPGPALGAKGALKAGVGEGGGGGGRLGHGRARYDSGGVSNGDCSLGVSGDEARASPTRGPRGVALAPTPSAVVCTLPRESKPGGLPRRSSIIKDGTKQKRERKKTVSFSSMPTEKKISSASDCINSMVEGSELKKVRSNSRIYHRYFLLDADMQSLRWEPSKKDSEKAKIDIKSIKEVRTGKNTDIFRSNGISDQISEDCAFSVIYGENYESLDLVANSADVANIWVTGLRYLISYGKHTLDMLESSQDNMRTSWVSQMFSEIDVDNLGHITLCNAVQCIRNLNPGLKTSKIELKFKELHKSKDKAGTEVTKEEFIEVFHELCTRPEIYFLLVQFSSNKEFLDTKDLMMFLEAEQGVAHINEEISLEIIHKYEPSKEGQEKGWLSIDGFTNYLMSPDCYIFDPEHKKVCQDMKQPLSHYFINSSHNTYLIEDQFRGPSDITGYIRALKMGCRSVELDVWDGPDNEPVIYTGHTMTSQIVFRSVIDIINKYAFFASEYPLILCLENHCSIKQQKVMVQHMKKLLGDKLYTTSPNVEESYLPSPDVLKGKILIKAKKLSSNCSGVEGDVTDEDEGAEMSQRMGKENMEQPNNVPVKRFQLCKELSELVSICKSVQFKEFQVSFQVQKYWEVCSFNEVLASKYANENPGDFVNYNKRFLARVFPSPMRIDSSNMNPQDFWKCGCQIVAMNFQTPGLMMDLNIGWFRQNGNCGYVLRPAIMREEVSFFSANTKDSVPGVSPQLLHIKIISGQNFPKPKGSGAKGDVVDPYVYVEIHGIPADCAEQRTKTVHQNGDAPIFDESFEFQINLPELAMVRFVVLDDDYIGDEFIGQYTIPFECLQTGYRHVPLQSLTGEVLAHASLFVHVAITNRRGGGKPHKRGLSVRKGKKSREYASLRTLWIKTVDEVFKNAQPPIRDATDLRENMQNAVVSFKELCGLSSVANLMQCMLAVSPRFLGPDNTPLVVLNLSEQYPTMELQGIVPEVLKKIVTTYDMMIQSLKALIENADAVYEKIVHCQKAAMEFHEHLHSIGTKEGLKERKLQKAVESFTWNITILKGQADLLKYAKNETLENLKQIHFAAVSCGLNKPGTENADVQKPRRSLEVIPEKANDETGE | soluble
